{"source": "paper PMC6462504", "about": "“Dopamine transporter forms stable dimers in the live cell plasma membrane in a phosphatidylinositol 4,5-bisphosphate–independent manner” (The Journal of Biological Chemistry, 2019)", "proteins": {"B1": {"name": "human dopamine transporter fused to monomeric GFP (mGFP–hDAT) (natural protein, UniProt Q01959 1-620, looked up)", "chain": "MSKSKCSVGLMSSVVAPAKEPNAVGPKEVELILVKEQNGVQLTSSTLTNPRQSPVEAQDRETWGKKIDFLLSVIGFAVDLANVWRFPYLCYKNGGGAFLVPYLLFMVIAGMPLFYMELALGQFNREGAAGVWKICPILKGVGFTVILISLYVGFFYNVIIAWALHYLFSSFTTELPWIHCNNSWNSPNCSDAHPGDSSGDSSGLNDTFGTTPAAEYFERGVLHLHQSHGIDDLGPPRWQLTACLVLVIVLLYFSLWKGVKTSGKVVWITATMPYVVLTALLLRGVTLPGAIDGIRAYLSVDFYRLCEASVWIDAATQVCFSLGVGFGVLIAFSSYNKFTNNCYRDAIVTTSINSLTSFSSGFVVFSFLGYMAQKHSVPIGDVAKDGPGLIFIIYPEAIATLPLSSAWAVVFFIMLLTLGIDSAMGGMESVITGLIDEFQLLHRHRELFTLFIVLATFLLSLFCVTNGGIYVFTLLDHFAAGTSILFGVLIEAIGVAWFYGVGQFSDDIQQMTGQRPSLYWRLCWKLVSPCFLLFVVVVSIVTFRPPHYGAYIFPDWANALGWVIATSSMAMVPIYAAYKFCSLPGSFREKLAYAIAPEKDRELVDRGEVRQFTLRHWLKV", "notes": "human dopamine transporter (hDAT); XhoI/HindIII fragment of hDAT cDNA ligated into mGFP-C1, then cloned into pIB2; mGFP is fused to the cytosolic N terminus of hDAT; also called mEGFP–hDAT; mGFP–DAT; source: CHO cells stably expressing mGFP–hDAT (viral transduction, blasticidine selection), in the live cell plasma membrane; not shown: mGFP (eGFP with A206K), N-terminal, kept"}}, "molecular_target": "the molecule itself", "test": "single-molecule brightness analysis (TOCCSL); live CHO cells stably expressing mGFP–hDAT, TIRF microscopy of the plasma membrane, room temperature; mobile fraction only; also at low (~5/μm^2) and high (~40/μm^2) surface density and after cholesterol oxidase (2 units/ml, 30 min), MβCD (5 mM, 1 h) or m-3M3FBS (25 μM, 20 min): distribution unchanged"}
{"protein": "B1", "values": [{"measurement": "stoichiometry N", "value": 2}]}
